Our source for the Kd values is paper PMC6862464, “Structural Insights into AQP2 Targeting to Multivesicular Bodies” (International Journal of Molecular Sciences, 2019).

A word on the Kd: it is a measure of binding affinity in units of concentration. A higher Kd goes with weaker binding.

Where a chain is given by its changes, count along the chain named.

Common to all, as to assay: other fluorescence titration; Alexa 488-labeled, dephosphorylated AQP2 (around 1 uM) in the cuvette, titrated with unlabeled LIP5; total fluorescence; 20 mM Tris-HCl pH 8, 300 mM NaCl, 0.2% OGNG; triplicate titrations
Holding throughout (conditions): both partners purified

The target in assay [1] is T1, full-length human LIP5 L67A (human, UniProt Q9NP79 1-307, L67A).
T1 construct: LIP5, human, full length, point mutant; spacer before the TEV site and His tag, as in m2; Mutant of m2; dimer as said of full-length LIP5 (cited); source: E. coli BL21*(DE3), purified (HisTrap, SEC)
T1 sequence: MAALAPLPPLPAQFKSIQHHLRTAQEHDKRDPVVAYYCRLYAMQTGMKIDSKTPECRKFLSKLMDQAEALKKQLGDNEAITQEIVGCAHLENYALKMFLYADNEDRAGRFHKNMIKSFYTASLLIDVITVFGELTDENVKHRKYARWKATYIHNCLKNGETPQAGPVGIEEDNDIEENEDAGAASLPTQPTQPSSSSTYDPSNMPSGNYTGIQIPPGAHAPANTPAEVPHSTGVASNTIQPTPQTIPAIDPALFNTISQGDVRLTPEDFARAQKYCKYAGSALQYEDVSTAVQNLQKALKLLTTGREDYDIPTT

For assay [2], the target named is T2, full-length human LIP5 E68A (human, UniProt Q9NP79 1-307, E68A).
T2 construct: LIP5, human, full length, point mutant; spacer before the TEV site and His tag, as in m2; Mutant of m2; dimer as said of full-length LIP5 (cited); source: E. coli BL21*(DE3), purified (HisTrap, SEC)
T2 sequence: T1 sequence with A67L, E68A

Assay [3] has as its target T3, full-length human LIP5 K71A (human, UniProt Q9NP79 1-307, K71A).
T3 construct: LIP5, human, full length, point mutant; spacer before the TEV site and His tag, as in m2; Mutant of m2; dimer as said of full-length LIP5 (cited); source: E. coli BL21*(DE3), purified (HisTrap, SEC)
T3 sequence: T1 sequence with A67L, K71A

Assay [4] addresses T4, full-length human LIP5 M47A (human, UniProt Q9NP79 1-307, M47A).
T4 construct: LIP5, human, full length, point mutant; spacer before the TEV site and His tag, as in m2; Mutant of m2; dimer as said of full-length LIP5 (cited); source: E. coli BL21*(DE3), purified (HisTrap, SEC)
T4 sequence: T1 sequence with M47A, A67L

Assay [5] addresses T5, full-length human LIP5 D65A (human, UniProt Q9NP79 1-307, D65A).
T5 construct: LIP5, human, full length, point mutant; spacer before the TEV site and His tag, as in m2; Mutant of m2; dimer as said of full-length LIP5 (cited); source: E. coli BL21*(DE3), purified (HisTrap, SEC)
T5 sequence: T1 sequence with D65A, A67L

Assay [6] has as its target T6, full-length human LIP5 M64A (human, UniProt Q9NP79 1-307, M64A).
T6 construct: LIP5, human, full length, point mutant; spacer before the TEV site and His tag, as in m2; Mutant of m2; dimer as said of full-length LIP5 (cited); source: E. coli BL21*(DE3), purified (HisTrap, SEC)
T6 sequence: T1 sequence with M64A, A67L

B1: human aquaporin 2 (AQP2), wild-type (natural protein, UniProt P41181 1-271, looked up)
chain: MWELRSIAFSRAVFAEFLATLLFVFFGLGSALNWPQALPSVLQIAMAFGLGIGTLVQALGHISGAHINPAVTVACLVGCHVSVLRAAFYVAAQLLGAVAGAALLHEITPADIRGDLAVNALSNSTTAGQAVTVELFLTLQLVLCIFASTDERRGENPGTPALSIGFSVALGHLLGIHYTGCSMNPARSLAPAVVTGKFDDHWVFWIGPLVGAILGSLLYNYVLFPPAKSLSERLAVLKGLEPDTDWEEREVRRRQSVELHSPQSLPRGTKA
modifications: cysteine residues labeled with C5 maleimide Alexa 488; dephosphorylated with alkaline phosphatase before labeling
notes: concentrations and molar ratios seem to count monomers; His-tag is called uncleavable; also called WT; labeled AQP2; source: Pichia pastoris, purified (HisTrap, SEC) in OGNG; not shown: His-tag, N-terminal, kept
In the case of B1, the Kd turned out to be 0.298 µM in assay [1]; 0.243 µM in assay [2]; 0.137 µM in assay [3]; 0.463 µM in assay [4]; 0.149 µM in assay [5]; 0.271 µM in assay [6].
